Test results: doi:10.1101/2021.01.12.426394
Where no end group is shown, it is not given here.

What was measured:
[1] = molecular target: honeybee tachykinin-related peptide receptor, FLAG-TRPR expressed in HEK293 cells (Apis mellifera); experiment: competitive binding of a fluorescent ligand on cells
[2] = molecular target: honeybee tachykinin-related peptide receptor, FLAG-TRPR expressed in Sf21 cells (Apis mellifera); experiment: as above

Binder | IC50 [1] [nM] | IC50 [2] [nM]
ALMGFQGVR-NH2 [tachykinin-related peptide 2 (TRP2), unlabeled] | 2.34 | 8.76
APMGFQGMR-NH2 [tachykinin-related peptide 3 (TRP3), unlabeled] | 6.29 | 34.9
